Test results taken from patent US20060084798.

System: MOP7/human ARNT (transfected) (Mus musculus)
Test: cell_activity
Details: COS-1 luciferase; enhanced by hypoxia or CoCl2

For “HRE reporter (six HRE enhancer elements)”, the activity was 11.7 fold.
